Measured values from patent US20060251661A1.

Biological target: OVA peptide 257-264 (SIINFEKL) presented on MHC class I molecule K^b of antigen presenting cells (mouse; chicken)
Assay: cell-based or functional assay

α-β T cell receptor (TCR) of B3Z CD8+ T hybridoma cells, specific for OVA257-264 presented on K^b
% of B3Z cells activated (lacZ reporter, flow cytometry); lymph node cells of mice with B16/OVA tumors injected with α-gal glycolipids: 1.07 to 3.66% | % of B3Z cells activated (lacZ reporter, flow cytometry); lymph node cells of mice with PBS treated B16/OVA tumors: 0 to 0.14%
